B1: SPATS1 (parent)
chain: YPEQSKGFHKAGSMLPPVNFSIVP

Variants of: B1
Test: protein stability index of a GFP-peptide fusion (GPS, HEK-293T) (PSI 1-6); higher = more stable
Conditions: c terminus: a fixed tail appended
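Also: lentivirally expressed fusions sorted by FACS into six bins by GFP to DsRed ratio, PSI derived from sequencing read proportions per bin multiplied by bin number.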

Protein stability index of substitutions, site by site:
S5: P 2.15 | K 2.49 | L 2.15 | W 2.18 | N 1.99 | T 2.23 | R 2.67 | Y 2.1 | Q 2.55 | M 2.37 | V 2.45
K6: S 2.56 | N 1.91 | Y 1.93 | H 1.71 | I 1.86 | T 1.92 | A 1.92 | E 2.41 | W 1.9 | F 2.1 | D 2.29 | R 1.71 | M 2.26 | C 2.38 | L 1.75 | G 2.09 | Q 1.71 | P 2.17 | V 1.67
G12: V 1.79 | Q 1.66 | N 1.94 | D 2.08 | E 1.95 | S 1.84 | W 2.08 | P 2 | C 2.75 | F 1.64 | M 1.7 | T 2.04 | A 1.76 | L 2.24 | H 1.94 | Y 2.64 | K 1.98 | R 2.26 | I 1.49
A11: S 1.78 | D 2.29 | K 2.15 | E 2.78 | F 2.1 | Y 1.74 | G 1.98 | L 1.55 | H 2.21 | T 1.83 | M 1.84 | N 1.81 | C 2.03 | P 2.19 | R 2.33 | V 1.67 | I 2.7 | W 1.82 | Q 2.17
N19: Q 1.87 | D 1.97 | G 1.74 | V 2.07 | M 1.75 | H 1.91 | C 1.56 | K 1.82 | L 2.24 | S 2.43 | F 2.48 | E 1.91 | T 1.75 | P 1.88 | R 1.85 | Y 2.26 | I 2.41 | W 2.18 | A 2.17
S21: A 1.8 | D 1.87 | Y 2.6 | M 2.06 | H 1.49 | F 1.6 | Q 1.88 | K 2.15 | E 1.94 | G 1.81 | R 1.8 | V 2.24 | P 1.96 | I 2.13 | C 1.79 | T 2.52 | N 2.4 | L 2.08 | W 2.43
V18: Q 2.2 | H 1.95 | N 2.4 | R 1.62 | L 1.28 | T 2 | I 1.84 | Y 1.91 | K 2.06 | W 1.76 | F 1.73 | G 2.48 | A 2.56 | E 1.81 | P 2.19 | D 2.26 | S 1.96 | C 2.2 | M 2.02
I22: T 2.53 | M 2.04 | L 2.34 | R 2.52 | S 2.48 | F 1.97 | H 1.75 | P 2.01 | N 2.31 | C 1.76 | V 1.82 | A 2.22 | W 1.24 | Q 2.26 | D 2.47 | Y 1.75 | G 2.52 | E 2.33 | K 1.65
H9: V 2.13 | W 3.39 | L 1.66 | F 4.31 | E 2.81 | C 1.82 | K 2.56 | Q 2.51 | D 2.94 | N 2.75 | T 2.16 | S 2.4 | Y 2.21 | M 2.14 | I 2.38 | R 2.42 | P 2.19 | G 2.13 | A 2.1
K10: A 1.85 | T 2.08 | W 3.61 | E 2.58 | L 2.88 | R 2.47 | Q 1.9 | I 1.7 | Y 2.15 | M 1.93 | D 2.54 | G 1.52 | C 3.44 | P 2 | H 1.44 | V 1.76 | N 2 | S 1.91 | F 1.57
F8: M 2.43 | P 3.39 | G 3.58 | V 2.86 | R 3.17 | A 3.6 | W 3.05 | H 3.07 | Y 1.97 | C 2.78 | E 3.69 | D 4.19 | Q 3.39 | S 3.57 | T 3.18 | N 3.83 | K 3.32 | L 2.9 | I 3.44
S13: P 1.88 | R 2.15 | L 1.88 | N 2.13 | Y 1.78 | F 1.97 | K 1.95 | I 1.74 | D 2.17 | H 1.9 | A 1.68 | G 1.85 | Q 1.97 | V 1.67 | C 1.73 | W 2.1 | M 1.69 | E 2.24 | T 1.7
P17: F 1.58 | I 1.75 | H 2.75 | Y 1.8 | K 1.59 | E 1.85 | W 2.59 | V 2.22 | R 1.61 | A 2.63 | N 1.9 | M 1.42 | D 1.94 | Q 1.76 | S 1.94 | G 1.83 | C 1.41 | T 1.59 | L 1.62
P16: W 1.96 | N 1.65 | M 1.52 | F 1.98 | Y 1.78 | H 1.44 | K 2.01 | T 1.9 | G 1.65 | E 1.95 | D 1.94 | A 1.95 | S 1.43 | V 2.16 | C 1.97 | Q 2.02 | I 1.54 | R 1.99 | L 1.76
L15: Y 2.42 | F 1.84 | E 2.37 | T 2.16 | R 1.9 | G 1.58 | H 2.27 | N 2.02 | Q 2.47 | S 2.04 | D 2.29 | A 1.63 | C 2.05 | P 2.42 | W 1.47 | M 1.8 | K 1.72 | V 1.85 | I 1.84
G7: W 1.7 | R 2.92 | L 2.24 | K 2.39 | H 1.43 | Q 1.73 | M 2.2 | N 2.09 | V 1.86 | D 2.86 | I 2.34 | T 3.08 | S 1.9 | E 1.63 | C 1.94 | A 2.45 | F 2.12 | Y 2.14 | P 1.71
F20: A 2.26 | L 1.97 | I 1.73 | C 2.13 | S 2.14 | R 2.23 | K 2.19 | D 2.39 | G 1.71 | E 2.13 | H 2.19 | N 2.22 | Q 2.47 | P 2.66 | V 2.88 | T 2.24 | Y 2.03 | M 1.97 | W 1.57
M14: S 2.17 | T 1.99 | P 2.07 | I 1.83 | G 1.97 | F 2.28 | H 1.87 | V 2.03 | W 1.91 | N 2.37 | E 1.88 | C 2.25 | R 2.8 | L 1.74 | K 2.47 | A 2.13 | Y 2 | D 1.96 | Q 2.08

From the supplement of paper PMC10567573
